Where two headings read alike, the source gives them in different places.
Experiments:
[1] = target: T1, NHTF (NHTF C-His) (UniProt Q7DDD9 1-106); experiment: EMSA
T1 sequence: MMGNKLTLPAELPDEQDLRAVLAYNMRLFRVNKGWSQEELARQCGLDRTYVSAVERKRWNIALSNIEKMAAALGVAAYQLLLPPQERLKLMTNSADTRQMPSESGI

[2] = target: T1, NHTF (NHTF C-His); experiment: EMSA; remark: listed apart in the source
[3] = target: the molecule itself; experiment: SEC
[4] = target: the molecule itself; experiment: SEC; remark: listed apart in the source

B1: NHTF 5'UTR fragment 2 (dsDNA)
DNA 1: TTGATGTGTGTGTGTTTGGGTGTGGCTGCCGCCACCC
DNA 2: GGGTGGCGGCAGCCACACCCAAACACACACACATCAA
**Q.** Does B1 bind [1]?
**A.** no binding

B2: Nonspecific 25-mer (dsDNA)
DNA 1: ACCCCTTTTTTTTGGCTTTTATGTG
DNA 2: CACATAAAAGCCAAAAAAAAGGGGT
**Q.** Does B2 bind [2]?
**A.** no binding

B3: Specific (mutant) 25-mer (dsDNA)
DNA 1: TACCCGAAGTAAAATCCGTAACAGC
DNA 2: GCTGTTACGGATTTTACTTCGGGTA
**Q.** Does B3 bind [1]?
**A.** no binding

B4: C-terminal His6-tagged NHTF transcription factor (natural protein, N. meningitidis MC58)
chain: MMGNKLTLPAELPDEQDLRAVLAYNMRLFRVNKGWSQEELARQCGLDRTYVSAVERKRWNIALSNIEKMAAALGVAAYQLLLPPQERLKLMTNSADTRQMPSESGI
**Q.** With B4 as the binder, how does the “stoichiometry N” value [3] read?
**A.** 2

B5: DMP19 (NMB0541), without any tag (natural protein, N. meningitidis MC58, UniProt Q9K0P4 1-165, looked up)
chain: MTALTLPEDIRQQEPSALLYTLVSAYLEHTAQTGDESLSCLSDDQHTLTAFCYLDSQVEEGGFVQLIASGYGEYIFRNPLADSLRRWKIKAVPKVLDKAKALYEQHGKTIETLADGGADIPSLRKQFPEFEEWDGAYYEAAEQDLPLLAEHIQSNWETFAHIGQA
**Q.** How did the “stoichiometry N” value [4] turn out when B5 was run?
**A.** 2

B6: NHTF 5'UTR fragment 3 (dsDNA)
DNA 1: CTTTTTTTTGGCTTTTATGTGAAGTAAAATCCGTAACAGC
DNA 2: GCTGTTACGGATTTTACTTCACATAAAAGCCAAAAAAAAG
**Q.** Does B6 bind [1]?
**A.** binds

B7: Specific 25-mer (dsDNA)
DNA 1: TATGTGAAGTAAAATCCGTAACAGC
DNA 2: GCTGTTACGGATTTTACTTCACATA
**Q.** Does B7 bind [1]?
**A.** binds

B8: NHTF 5'UTR fragment 1 (dsDNA)
DNA 1: TGTTTCCCAATCTGTCTTGATTTTATCTCTTTCCTC
DNA 2: GAGGAAAGAGATAAAATCAAGACAGATTGGGAAACA
**Q.** Does B8 bind [1]?
**A.** no binding

B9: NHTF 5'UTR fragment 4 (dsDNA)
DNA 1: AAATGCTTAACTTTAACCATTTATCTGGAAGCAA
DNA 2: TTGCTTCCAGATAAATGGTTAAAGTTAAGCATTT
**Q.** Does B9 bind [1]?
**A.** no binding
